The results in this text go back to PMC9549473, “Triple-FRET multi-purpose fluorescent probe for three-protease detection” (RSC Advances, 2022).

The structures appear in SMILES notation. Non-standard residues stand in square brackets, D forms with d. Residues, ends and D or L forms follow the SMILES beside them. Groups on a side chain read outwards from the residue. *: point of attachment. RhodamineB = CCN(CC)c1ccc2c(-c3ccccc3C(=O)*)c3ccc(=[N+](CC)CC)cc-3oc2c1; X1 = CC[N+](CC)=c1ccc2c(-c3ccccc3C(=O)*)c3c(oc-2c1)-c1ccc(N(C)C)cc1CC3; X3 = CCN(CC)c1ccc2cc(C(=O)N[C@@H](CCCCN*)C(=O)O)c(=O)oc2c1; X2 = O=C(c1ccccc1-c1c2ccc(=O)cc-2oc2cc(O)ccc12)*; AEEA = NCCOCCOCC(=O)O; Sar = CNCC(=O)O

The target of data set [1] is T1, Caspase-8 (human, recombinant, active) (Homo sapiens, UniProt Q14790).
T1 construct: Caspase-8 (human, recombinant, active, 5000 units per mg protein); purchased Enzo Life Sciences, Inc. (New York, USA)
As to the kind of experiment: Single protease detection with the triple-FRET 4-dye probe: caspase-8. It is filed as biochemical. Conditions: 5 μM probe, Tris–HCl pH 8.0 with DTT 10 mM, 37 °C, 45 min, λexc 425 nm, three parallels. The source says:
(§1) Trypsin (bovine pancreas, TPCK treated, ≥10 000 BAEE units per mg protein) and α-chymotrypsin (bovine pancreas, TLCK treated, type VII, ≥40 units per mg protein) were ordered from Sigma-Aldrich (Steinheim, Germany). Caspase-8 (human, recombinant, active, 5000 units per mg protein) was provided by Enzo Life Sciences, Inc. (New York, USA). All enzyme species were obtained in the form of lyophilized white to off-white powders. They were reconstituted according to the providers' instructions, aliquoted in Eppendorf tubes, and finally stored at −80 °C in a deep freezer (Arctiko, Esbjerg Kommune, Denmark). […]
(§2) The appropriate amount of the 4-dye probe (1) was dissolved in 950 μL of Tris–HCl buffer. […] Afterwards, the fluorescence emission spectrum upon excitation with the light source of 425 nm was measured at the time 0 using a fluorescence spectrometer (Cary Eclipse, Agilent Technologies, Santa Carla, CA, USA). […] Fluorescence emission responses were then repeatedly measured at the times 2, 5, 8, 12, 16, 20, 25, 30, 35, 40, and 45 min. During the entire period of the experiment, a fluorimeter cuvette was placed in a cell holder preheated to 37 °C, and located inside a fluorescence spectrometer.
(§3) Additionally, the rules for individual protease recognition could be graphically presented, using fluorescence emission ratios of suitable fluorophores measured at particular times. […]

A short description of data set [2]: Stability in buffer solution without enzyme (fluorescence responses, blank sample). The following applies: no enzyme, 5 μM probe, λexc 425 nm. It is filed as physicochemical. As to the method:
Enzyme assays were carried out in 0.1 M Tris–HCl buffer solution in ultrapure water, with the addition of NaCl (25 mM), EDTA (5 mM) and glycerol (2.5% v/v). The pH of the media (pH = 8.0) was adjusted by gradual dropwise addition of concentrated NaOH aqueous solution.
The appropriate amount of the 4-dye probe (1) was dissolved in 950 μL of Tris–HCl buffer. The resulting solution was placed into a plastic fluorimeter cuvette and preheated to 37 °C. Afterwards, the fluorescence emission spectrum upon excitation with the light source of 425 nm was measured at the time 0 using a fluorescence spectrometer (Cary Eclipse, Agilent Technologies, Santa Carla, CA, USA). Then 20 μL of 1 mM HCl with/without enzyme (trypsin or chymotrypsin) and 30 μL of physiological saline solution with/without enzyme (caspase-8) were added, resulting in a final volume of 1 mL of 5 μM 4-dye substrate (1). In the case of caspase-8, DL-dithiothreitol (10 mM) was also present in a buffer. Fluorescence emission responses were then repeatedly measured at the times 2, 5, 8, 12, 16, 20, 25, 30, 35, 40, and 45 min. During the entire period of the experiment, a fluorimeter cuvette was placed in a cell holder preheated to 37 °C, and located inside a fluorescence spectrometer.
As the three target proteases, trypsin, chymotrypsin, and caspase-8 were considered. […] During the biological testing, the emission responses of all four dyes were monitored throughout the entire period of the experiment. The assay conditions and parameters were established based on our practical observations, theoretical facts, and previous experience.[12,28,29] To obtain a uniform incubation medium suitable for all three proteases detection, the appropriate conditions for trypsin and chymotrypsin sensing were combined with those suitable for caspase-8 screening. As a result, EDTA, NaCl and glycerol were added to the Tris–HCl buffer solution, and its pH value was set to 8.0. After dissolving the intact 4-dye probe (1) in that way prepared buffer, the emission responses of all four fluorophores were monitored within 45 min of incubation at 37 °C.

Another data set deals with T2, trypsin (Bos taurus, UniProt P00760).
T2 construct: Trypsin (bovine pancreas, TPCK treated, ≥10 000 BAEE units per mg protein); purchased Sigma-Aldrich (Steinheim, Germany); host or cells: bovine pancreas (tissue-derived)
T2 sequence (P00760 24-246): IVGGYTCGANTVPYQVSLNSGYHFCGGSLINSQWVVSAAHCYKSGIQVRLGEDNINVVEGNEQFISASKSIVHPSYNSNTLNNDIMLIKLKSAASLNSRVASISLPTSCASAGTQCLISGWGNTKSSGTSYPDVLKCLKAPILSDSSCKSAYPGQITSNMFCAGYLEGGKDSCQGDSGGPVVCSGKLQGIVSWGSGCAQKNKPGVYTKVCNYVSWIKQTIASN
As to the kind of experiment: LC-MS analysis of the probe cleaved by trypsin. Conditions: LC-MS of cleavage fragments. It counts as biochemical, bovine. As to the method:
(§4) Following the successful development of the methodology for the separate detection of individual proteases in a sample, we decided to investigate and evaluate the possibilities of simultaneous detection of multiple enzymes. […] Consequently, some potential ambiguities and drawbacks were expected from the perspective of nonspecific cleavage of the 4-dye substrate 1 by chymotrypsin. The experiments of the two-enzyme detection were performed with all three theoretically possible pairs of the considered proteases in their low concentrations.

The target of the next data set is T3, caspase-8 (Homo sapiens, UniProt Q14790).
T3 construct: Caspase-8 (human, recombinant, active, 5000 units per mg protein); purchased Enzo Life Sciences, Inc. (New York, USA)
As to the kind of experiment: LC-MS analysis of the probe cleaved by caspase-8. It is filed as biochemical. Conditions: LC-MS of cleavage fragments.

The target in data set [3] is T4, α-chymotrypsin (bovine pancreas, TLCK treated, type VII) (Bos taurus, UniProt P00766).
T4 construct: α-chymotrypsin (bovine pancreas, TLCK treated, type VII, ≥40 units per mg protein); purchased Sigma-Aldrich (Steinheim, Germany); host or cells: bovine pancreas (tissue-derived)
In words: Single protease detection with the triple-FRET 4-dye probe: chymotrypsin. It counts as biochemical. The following applies: 5 μM probe, Tris–HCl pH 8.0, 37 °C, 45 min, λexc 425 nm, three parallels.
Description: as §1, §2, §3

A short description of data set [4]: Storage stability of the solid, LC-MS. The following applies: solid powder stored at −80 °C; dissolved to 50 μM in Tris–HCl pH 8.0 and analysed by LC-MS, repeated over 30 days. It counts as physicochemical. As to the method: The isolated 4-dye substrate (1) was characterized by LC-MS analysis and HRMS. Its final purity was determined based on LC-MS analysis, testing different analytical columns, mobile phases, gradients and elution times (ESI – Fig. S6 and S7 ^†). For stability testing, the 4-dye probe (1) in the form of powder (stored at −80 °C) was dissolved in an appropriate volume of Tris–HCl buffer (pH = 8.0) to obtain a 50 μM solution and subsequently analyzed by LC-MS. This process was repeated a few times over 30 days.
Due to its size and complexity, the 4-dye probe (1) was also briefly examined from the solubility in aqueous media point of view. It turned out that at least 0.5 mM stock solution of the target substrate (1) in Tris–HCl buffer (pH = 8.0) could be promptly and efficiently prepared. For comparison, a solution of a hundredfold lower concentration (5 μM) of the 4-dye probe (1) in the same buffer media was utilized in the biological assays. The relatively high solubility of the substrate (1) could be attributed to its structure (Fig. 1), comprising six polyethylene glycol-based (PEG) spacers and two charged fluorophores (Rhodamine B and HN6). Moreover, three terminal carboxyl groups of the peptide backbone are instantly turned into corresponding carboxylate salts in a basic buffer environment, contributing to the solubility of the 4-dye probe (1) in aqueous media. […]

Another data set addresses T5, chymotrypsin (Bos taurus, UniProt P00766).
T5 construct: α-chymotrypsin (bovine pancreas, TLCK treated, type VII, ≥40 units per mg protein); purchased Sigma-Aldrich (Steinheim, Germany); host or cells: bovine pancreas (tissue-derived)
As to the kind of experiment: LC-MS analysis of the probe cleaved by chymotrypsin. It is filed as biochemical, bovine. Conditions: LC-MS of cleavage fragments; chymotrypsin 2.5 µg/mL, 2 hours. As to the method: as §4
Figure S10: LC-MS analysis of the 4-dye probe cleaved by chymotrypsin (2.5 µg/mL, 2 hours).
Fragment 1 (Rt = 1.46 min) […]

A short description of data set [5]: Solubility in aqueous media (Tris–HCl buffer). Conditions: Tris–HCl buffer pH 8.0, from solid, read-out: solubility: stock solution that could be promptly and efficiently prepared. It counts as physicochemical. The procedure: Due to its size and complexity, the 4-dye probe (1) was also briefly examined from the solubility in aqueous media point of view. It turned out that at least 0.5 mM stock solution of the target substrate (1) in Tris–HCl buffer (pH = 8.0) could be promptly and efficiently prepared. For comparison, a solution of a hundredfold lower concentration (5 μM) of the 4-dye probe (1) in the same buffer media was utilized in the biological assays. The relatively high solubility of the substrate (1) could be attributed to its structure (Fig. 1), comprising six polyethylene glycol-based (PEG) spacers and two charged fluorophores (Rhodamine B and HN6). Moreover, three terminal carboxyl groups of the peptide backbone are instantly turned into corresponding carboxylate salts in a basic buffer environment, contributing to the solubility of the 4-dye probe (1) in aqueous media. Afterwards, its stability was taken into consideration. The dark blue powder obtained after freeze-drying was dissolved in an appropriate volume of Tris–HCl buffer (pH = 8.0), and shortly after that, LC-MS analysis was performed. The process was repeated a few times within one month.

The target in data set [6] is T6, Trypsin (bovine pancreas, TPCK treated) (Bos taurus, UniProt P00760).
T6 construct: Trypsin (bovine pancreas, TPCK treated, ≥10 000 BAEE units per mg protein); purchased Sigma-Aldrich (Steinheim, Germany); host or cells: bovine pancreas (tissue-derived)
T6 sequence (P00760 24-246): T2 sequence (P00760 24-246)
In words: Single protease detection with the triple-FRET 4-dye probe: trypsin. Conditions: 5 μM probe, Tris–HCl pH 8.0, 37 °C, 45 min, λexc 425 nm, three parallels. It is filed as biochemical.
Description: as §1, §2, §3

Setting [7] is: 16 min vs 0 min, Tris–HCl pH 8.0, 37 °C, mean of 3 parallels.
Where [8] appears, read: 45 min vs 0 min, Tris–HCl pH 8.0, 37 °C, mean of 3 parallels.

T1 sequence (Q14790 217-374 limits assumed): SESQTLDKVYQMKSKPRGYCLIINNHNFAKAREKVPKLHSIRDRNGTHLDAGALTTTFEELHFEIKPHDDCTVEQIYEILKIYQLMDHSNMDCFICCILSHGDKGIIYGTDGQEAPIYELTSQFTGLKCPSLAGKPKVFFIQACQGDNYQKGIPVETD
T1 sequence (Q14790 385-479 limits assumed): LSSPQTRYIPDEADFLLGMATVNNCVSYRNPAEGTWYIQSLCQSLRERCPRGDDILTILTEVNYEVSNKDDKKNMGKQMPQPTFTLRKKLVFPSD
T3 sequence (Q14790 217-374 limits assumed): as the sequence (Q14790 217-374 limits assumed) above
T3 sequence (Q14790 385-479 limits assumed): as the sequence (Q14790 385-479 limits assumed) above

The term solubility denotes how much of the substance goes into solution per volume. On to `CCN(CC)c1ccc2cc(C(=O)N[C@@H](CCCCNC(=O)COCCOCCNC(=O)[C@H](C)NC(=O)[C@H](CC(=O)O)NC(=O)[C@@H](NC(=O)[C@H](CCC(=O)O)NC(=O)[C@H](CC(C)C)NC(=O)COCCOCCNC(=O)[C@H](CCCCNC(=O)CN(C)C(=O)c3ccccc3-c3c4ccc(=O)cc-4oc4cc(O)ccc34)NC(=O)COCCOCCNC(=O)[C@H](C)NC(=O)[C@H](CCCCN)NC(=O)[C@H](C)NC(=O)COCCOCCNC(=O)[C@H](CCCCNC(=O)CN(C)C(=O)c3ccccc3-c3c4ccc(=[N+](CC)CC)cc-4oc4cc(N(CC)CC)ccc34)NC(=O)COCCOCCNC(=O)[C@H](C)NC(=O)[C@H](Cc3ccccc3)NC(=O)[C@H](C)NC(=O)COCCOCCNC(=O)CN(C)C(=O)c3ccccc3-c3c4ccc(=[N+](CC)CC)cc-4oc4c3CCc3cc(N(C)C)ccc3-4)[C@@H](C)O)C(=O)O)c(=O)oc2c1` [4-dye probe (1)] (X1-[Sar][AEEA]AFA[AEEA]K([Sar-RhodamineB])[AEEA]AKA[AEEA]K([Sar-X2])[AEEA]LETDA[AEEA]-X3), for which the “lowest detectable concentration of caspase-8” value in [1] amounted to 2 U mL^−1. Further, the “fluorescence intensities of all four dyes during incubation in buffer (stability in buffer)” value in [2] (Tris–HCl pH 8.0 with NaCl, EDTA, glycerol, 37 °C, 45 min) is given as “practically unchanged”. In [2] (setting [7]), the “DEAC (I16/I0)” value amounted to 1.03, the “DEAC(I16/I0)/FL(I16/I0)” value is on record as 0.99, the “FL (I16/I0)” value came out at 1.04 and the “HN6 (I16/I0)” value is 0.97. Further, in data set [2] (setting [8]), the “DEAC (I45/I0)” value was determined as 1.05, the “DEAC(I45/I0)/FL(I45/I0)” value was determined as 0.97, the “FL (I45/I0)” value is 1.08 and the “HN6 (I45/I0)” value amounted to 0.97. Besides, the “sites of the probe cleaved by trypsin” value on trypsin is reported as “cleave only their own recognizable sites”. The “sites of the probe cleaved by caspase-8” value on caspase-8 is listed as “cleave only their own recognizable sites”. Besides, the “lowest detectable concentration of chymotrypsin” value in data set [3] was determined as 0.2 µg/mL. The “stability on storage (comparable LC-MS chromatograms and peak areas)” value in [4] is on record as “at least 30 days”. Moreover, on chymotrypsin, the “sites of the probe cleaved by chymotrypsin” value was “both chymotrypsin and trypsin linkers were cleaved”. For the same compound, in data set [5], the solubility is no less than 500 µM. Moreover, in data set [6], the “lowest detectable concentration of trypsin” value was 0.5 ng/mL.
